From publication PMC9260137 (Molecules and Cells, 2022)

Assays:
purified protein [1] = substrate: CC[C@H](C)[C@H](N)C(=O)O; assay: purified protein; conditions: oxidative deamination, co-substrate NAD+, 37 °C
purified protein [2] = substrate: CC(C)[C@H](N)C(=O)O; assay: purified protein; conditions: oxidative deamination, co-substrate NAD+, 37 °C
purified protein [3] = substrate: NC(=O)c1ccc[n+]([C@@H]2O[C@H](COP(=O)(O)OP(=O)(O)OC[C@H]3O[C@@H](n4cnc5c(N)ncnc54)[C@H](O)[C@@H]3O)[C@@H](O)[C@H]2O)c1; assay: purified protein; conditions: 37 °C, amino acid co-substrate not given, varied: cofactor
purified protein [4] = substrate: CC(C)C[C@H](N)C(=O)O; assay: purified protein; conditions: oxidative deamination, co-substrate NAD+, 37 °C
SEC-MALS = biological target: the molecule itself; assay: SEC-MALS

B1: Leucine dehydrogenase from Pseudomonas aeruginosa (enzyme)
chain: MFDMMDAARLEGLHLAQDPATGLKAIIAIHSTRLGPALGGCRYLPYPNDEAAIGDAIRLAQGMSYKAALAGLEQGGGKAVIIRPPHLDNRGALFEAFGRFIESLGGRYITAVDSGTSSADMDCIAQQTRHVTSTTQAGDPSPHTALGVFAGIRASAQARLGSDDLEGLRVAVQGLGHVGYALAEQLAAVGAELLVCDLDPGRVQLAVEQLGAHPLAPEALLSTPCDILAPCGLGGVLTSQSVSQLRCAAVAGAANNQLERPEVADELEARGILYAPDYVINSGGLIYVALKHRGADPHSITAHLARIPARLTEIYAHAQADHQSPARIADRLAERILYGPQ
With B1 the Km (purified protein [1]) was 400 ± 100 µM, the Vmax (purified protein [1]) was 7870 µM/min/mg and the kcat (purified protein [1]) was 1.8 ± 0.1 s⁻¹. It also gave a kcat/Km (purified protein [1]) of 5800 ± 400 M⁻¹ s⁻¹, a Km (purified protein [2]) of 500 ± 100 µM and a Vmax (purified protein [2]) of 35000 µM/min/mg. The kcat (purified protein [2]) was 9.6 ± 0.8 s⁻¹, the kcat/Km (purified protein [2]) was 14400 ± 900 M⁻¹ s⁻¹ and the Km (purified protein [3]) was 200 ± 100 µM. For the same protein, the Vmax (purified protein [3]) was 23200 µM/min/mg, the Km (purified protein [4]) was 1100 ± 100 µM and the Vmax (purified protein [4]) was 21100 µM/min/mg. For the same protein, the kcat (purified protein [4]) was 5.2 ± 0.5 s⁻¹, the kcat/Km (purified protein [4]) was 4300 ± 700 M⁻¹ s⁻¹ and the “stoichiometry N” value (SEC-MALS) was 2.
